From patent US20260098059A1 (ENDOMET BIOSCIENCES, published 2026)
“And” between values parts separate entries of the source, which are not always exact repeats. Equal entries are not always repeated. Where no end group is shown, it is not given here. [ ]: non-standard residue; d: D form. αMeW = C[C@](N)(Cc1c[nH]c2ccccc12)C(=O)O; αMeF = C[C@](N)(Cc1ccccc1)C(=O)O; 2Pal = N[C@@H](Cc1ccccn1)C(=O)O; αMeS = C[C@](N)(CO)C(=O)O

T1: β-catenin (UniProt P35222 134-665, limits assumed, biotinylated in the SPR and plate assays)
T1 construct: also called beta catenin; biotinylated β-catenin
T1 sequence (looked up): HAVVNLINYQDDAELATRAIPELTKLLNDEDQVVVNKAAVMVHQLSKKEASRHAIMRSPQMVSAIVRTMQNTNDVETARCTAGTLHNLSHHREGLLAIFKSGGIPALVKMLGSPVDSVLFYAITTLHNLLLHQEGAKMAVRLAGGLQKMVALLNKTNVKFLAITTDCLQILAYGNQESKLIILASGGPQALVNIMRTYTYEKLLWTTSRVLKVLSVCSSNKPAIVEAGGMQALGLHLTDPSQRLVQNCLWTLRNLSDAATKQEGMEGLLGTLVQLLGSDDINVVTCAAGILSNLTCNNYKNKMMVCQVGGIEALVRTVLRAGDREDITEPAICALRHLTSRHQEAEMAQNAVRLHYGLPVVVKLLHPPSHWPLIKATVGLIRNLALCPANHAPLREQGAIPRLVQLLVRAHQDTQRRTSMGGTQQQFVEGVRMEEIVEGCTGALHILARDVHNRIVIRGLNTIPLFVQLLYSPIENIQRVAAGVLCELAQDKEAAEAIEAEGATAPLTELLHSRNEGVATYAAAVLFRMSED


Key:
β-catenin [1] = target: T1, β-catenin; experiment: competitive FP
Method in brief: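 Competitive fluorescence polarization with inhibitor peptide serially diluted from 10 nM to 30 uM; polarization read at 470 nm excitation, 520 nm emission. Experiments performed three times.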

β-catenin [2] = target: T1, β-catenin; experiment: cell-based or functional assay

Row | Binder | Kd (β-catenin [1]) | Wnt Reporter EC50 (β-catenin [2])
1 | WFLISFW (HELM PEPTIDE1{[meW].F.L.I.S.F.W}$$$$V2.0; SMILES CC[C@H](C)[C@H](NC(=O)[C@H](CC(C)C)NC(=O)[C@H](Cc1ccccc1)NC(=O)[C@H](Cc1c[nH]c2ccccc12)NC)C(=O)N[C@@H](CO)C(=O)N[C@@H](Cc1ccccc1)C(=O)N[C@@H](Cc1c[nH]c2ccccc12)C(=O)O) [SEQ ID NO: 111] | > 0.4 µM and ≤ 1 µM | > 7.5 µM and ≤ 15 µM
2 | MWFLISFWG-NH2 [SEQ ID NO: 108] | > 0.4 µM and ≤ 1 µM | > 7.5 µM and ≤ 15 µM
3 | H-MWFLICFWG-OH [SEQ ID NO: 42] | ≤ 0.4 µM | ≤ 7.5 µM
4 | H-MWILISFWG-OH [SEQ ID NO: 43] | > 0.4 µM and ≤ 1 µM | ≤ 7.5 µM
5 | KWILISAWE (HELM PEPTIDE1{[ac].K.W.I.L.I.S.A.W.E}$PEPTIDE1,PEPTIDE1,2:R3-10:R3$$$V2.0; SMILES CC[C@H](C)[C@@H]1NC(=O)[C@H](CC(C)C)NC(=O)[C@H]([C@@H](C)CC)NC(=O)[C@H](Cc2c[nH]c3ccccc23)NC(=O)[C@@H](NC(C)=O)CCCCNC(=O)CC[C@@H](C(=O)O)NC(=O)[C@H](Cc2c[nH]c3ccccc23)NC(=O)[C@H](C)NC(=O)[C@H](CO)NC1=O) [SEQ ID NO: 188] | > 10 µM and ≤ 30 µM | ≤ 7.5 µM
6 | H-MW[αMeF]LICFWG-OH [SEQ ID NO: 131] | ≤ 0.4 µM | > 7.5 µM and ≤ 15 µM
7 | H-MWILIS[αMeF]WG-OH [SEQ ID NO: 128] | > 0.4 µM and ≤ 1 µM | > 7.5 µM and ≤ 15 µM
8 | H-HWILISFWG-OH [SEQ ID NO: 126] | ≤ 0.4 µM | ≤ 7.5 µM
9 | H-MWILIC[αMeF]WG-OH [SEQ ID NO: 121] | ≤ 0.4 µM | ≤ 7.5 µM
10 | KWFLISFWE (HELM PEPTIDE1{[ac].K.W.F.L.I.S.F.W.E}$PEPTIDE1,PEPTIDE1,2:R3-10:R3$$$V2.0; SMILES CC[C@H](C)[C@@H]1NC(=O)[C@H](CC(C)C)NC(=O)[C@H](Cc2ccccc2)NC(=O)[C@H](Cc2c[nH]c3ccccc23)NC(=O)[C@@H](NC(C)=O)CCCCNC(=O)CC[C@@H](C(=O)O)NC(=O)[C@H](Cc2c[nH]c3ccccc23)NC(=O)[C@H](Cc2ccccc2)NC(=O)[C@H](CO)NC1=O) [SEQ ID NO: 199] | > 0.4 µM and ≤ 1 µM | ≤ 7.5 µM
11 | H-MWFLIQFYG-OH [SEQ ID NO: 149] | > 0.4 µM and ≤ 1 µM | > 7.5 µM and ≤ 15 µM
12 | H-MWILI[dT]FWG-OH [SEQ ID NO: 137] | > 0.4 µM and ≤ 1 µM | > 15 µM and ≤ 22.5 µM
13 | H-MWFLIC[2Pal]WG-OH [SEQ ID NO: 148] | > 0.4 µM and ≤ 1 µM | > 7.5 µM and ≤ 15 µM
14 | H-KWILISFWG-OH [SEQ ID NO: 125] | > 0.4 µM and ≤ 1 µM | > 22.5 µM and ≤ 30 µM
15 | H-KMWILISFWG-OH [SEQ ID NO: 122] | ≤ 0.4 µM | > 22.5 µM and ≤ 30 µM

Other lines, results leading:

Row | Kd (β-catenin [1]) | Wnt Reporter EC50 (β-catenin [2]) | Binder
16 | > 0.4 µM and ≤ 1 µM | ≤ 7.5 µM | H-MWILISSWG-OH [SEQ ID NO: 129]
17 | ≤ 0.4 µM | > 22.5 µM and ≤ 30 µM | KWFLICFWE (HELM PEPTIDE1{[ac].K.W.F.L.I.C.F.W.E}$PEPTIDE1,PEPTIDE1,2:R3-10:R3$$$V2.0; SMILES CC[C@H](C)[C@@H]1NC(=O)[C@H](CC(C)C)NC(=O)[C@H](Cc2ccccc2)NC(=O)[C@H](Cc2c[nH]c3ccccc23)NC(=O)[C@@H](NC(C)=O)CCCCNC(=O)CC[C@@H](C(=O)O)NC(=O)[C@H](Cc2c[nH]c3ccccc23)NC(=O)[C@H](Cc2ccccc2)NC(=O)[C@H](CS)NC1=O) [SEQ ID NO: 185]
18 | > 10 µM and ≤ 30 µM | ≤ 7.5 µM | KWILISAWE (HELM PEPTIDE1{K.W.I.L.I.S.A.W.E}$PEPTIDE1,PEPTIDE1,1:R3-9:R3$$$V2.0; SMILES CC[C@H](C)[C@@H]1NC(=O)[C@H](CC(C)C)NC(=O)[C@H]([C@@H](C)CC)NC(=O)[C@H](Cc2c[nH]c3ccccc23)NC(=O)[C@@H](N)CCCCNC(=O)CC[C@@H](C(=O)O)NC(=O)[C@H](Cc2c[nH]c3ccccc23)NC(=O)[C@H](C)NC(=O)[C@H](CO)NC1=O) [SEQ ID NO: 184]
19 | ≤ 0.4 µM | > 7.5 µM and ≤ 15 µM | H-M[αMeW]ILICFWG-OH [SEQ ID NO: 132]
20 | ≤ 0.4 µM | ≤ 7.5 µM | H-DWFLICFWG-OH [SEQ ID NO: 142]
21 | > 0.4 µM and ≤ 1 µM | > 30 µM | H-MWILI[αMeS]FWG-OH [SEQ ID NO: 136]
22 | > 0.4 µM and ≤ 1 µM | ≤ 7.5 µM | LWFLICFWG (HELM PEPTIDE1{[Nle].W.F.L.I.C.F.W.G}$$$$V2.0; SMILES CCCC[C@H](N)C(=O)N[C@@H](Cc1c[nH]c2ccccc12)C(=O)N[C@@H](Cc1ccccc1)C(=O)N[C@@H](CC(C)C)C(=O)N[C@H](C(=O)N[C@@H](CS)C(=O)N[C@@H](Cc1ccccc1)C(=O)N[C@@H](Cc1c[nH]c2ccccc12)C(=O)NCC(=O)O)[C@@H](C)CC) [SEQ ID NO: 164]
23 | > 0.4 µM and ≤ 1 µM | ≤ 7.5 µM | Ac-MWFLICFWG-OH [SEQ ID NO: 198]
24 | ≤ 0.4 µM | ≤ 7.5 µM | Ac-MWILISFWG-OH [SEQ ID NO: 165]
25 | > 0.4 µM and ≤ 1 µM | > 7.5 µM and ≤ 15 µM | H-WWILISFWG-OH [SEQ ID NO: 127]
26 | > 0.4 µM and ≤ 1 µM | ≤ 7.5 µM | H-MWILICFWG-OH [SEQ ID NO: 116]
27 | > 0.4 µM and ≤ 1 µM | > 7.5 µM and ≤ 15 µM | MWFLICAWD (HELM PEPTIDE1{[O=C(CCCN[*:1])[*:2]].M.W.F.L.I.C.A.W.D}$PEPTIDE1,PEPTIDE1,1:R1-10:R3$$$V2.0; SMILES CC[C@H](C)[C@@H]1NC(=O)[C@H](CC(C)C)NC(=O)[C@H](Cc2ccccc2)NC(=O)[C@H](Cc2c[nH]c3ccccc23)NC(=O)[C@H](CCSC)NC(=O)CCCNC(=O)C[C@@H](C(=O)O)NC(=O)[C@H](Cc2c[nH]c3ccccc23)NC(=O)[C@H](C)NC(=O)[C@H](CS)NC1=O) [SEQ ID NO: 191]
28 | > 0.4 µM and ≤ 1 µM | > 15 µM and ≤ 22.5 µM | H-MWFLIKFYG-OH [SEQ ID NO: 151]
29 | > 0.4 µM and ≤ 1 µM | > 22.5 µM and ≤ 30 µM | KWILISFWE (HELM PEPTIDE1{K.W.I.L.I.S.F.W.E}$PEPTIDE1,PEPTIDE1,1:R3-9:R3$$$V2.0; SMILES CC[C@H](C)[C@@H]1NC(=O)[C@H](CC(C)C)NC(=O)[C@H]([C@@H](C)CC)NC(=O)[C@H](Cc2c[nH]c3ccccc23)NC(=O)[C@@H](N)CCCCNC(=O)CC[C@@H](C(=O)O)NC(=O)[C@H](Cc2c[nH]c3ccccc23)NC(=O)[C@H](Cc2ccccc2)NC(=O)[C@H](CO)NC1=O) [SEQ ID NO: 182]
30 | > 0.4 µM and ≤ 1 µM | ≤ 7.5 µM | H-MWFLISFW-OH [SEQ ID NO: 112]
31 | ≤ 0.4 µM | ≤ 7.5 µM | H-HMWILISFWG-OH [SEQ ID NO: 123]
32 | > 0.4 µM and ≤ 1 µM | > 30 µM | KMWFLICFWE (HELM PEPTIDE1{[ac].K.M.W.F.L.I.C.F.W.E}$PEPTIDE1,PEPTIDE1,2:R3-11:R3$$$V2.0; SMILES CC[C@H](C)[C@@H]1NC(=O)[C@H](CC(C)C)NC(=O)[C@H](Cc2ccccc2)NC(=O)[C@H](Cc2c[nH]c3ccccc23)NC(=O)[C@H](CCSC)NC(=O)[C@@H](NC(C)=O)CCCCNC(=O)CC[C@@H](C(=O)O)NC(=O)[C@H](Cc2c[nH]c3ccccc23)NC(=O)[C@H](Cc2ccccc2)NC(=O)[C@H](CS)NC1=O) [SEQ ID NO: 186]
